Results on one molecule are retold here after patent US20130217613A1 (MARQUETTE UNIVERSITY, published 2013).

The target of assay [1] is T1, His-tagged human Dpy-30 protein (full length) (human, UniProt Q9C005 1-99).
T1 construct: range 1-99; also called His-Dpy-30; HDpy-30; not shown: His tag and vector-encoded residues of pET-28a
As to the kind of experiment: Ni-NTA pulldown of co-expressed proteins, GST western blot.

In assay [2] the target is T2, His-tagged human Dpy-30 domain only (Dpy-30 45-99) (human, UniProt Q9C005 45-99).
T2 construct: range 45-99; also called the Dpy-30 domain; Dpy-30 domain alone; not shown: His tag and vector-encoded residues of pET-28a
T2 sequence (Q9C005 45-99): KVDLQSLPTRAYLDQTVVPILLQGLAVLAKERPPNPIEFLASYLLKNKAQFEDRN
Described as above.

T1 sequence (Q9C005 whole entry): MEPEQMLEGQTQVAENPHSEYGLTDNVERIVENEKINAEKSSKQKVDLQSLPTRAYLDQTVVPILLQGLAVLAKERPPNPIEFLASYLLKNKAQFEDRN

B1: GST-tagged RSP3 280-316 with V300P mutation (other)
chain: PWLKEQAIGYLARGVVARRVPDKLVEDAAAALAANRS
notes: also called pRSP3V300P product; not shown: N-terminal GST tag (from pGEX-2T) and its junction
As to B1, the binding result in assay [1] and in assay [2] was “no binding” each time.
